Results as given in US20010010919A1 (published 2001).

Biological target: T1, orphanin FQ receptor (rat, UniProt P35370 1-367)
T1 chain: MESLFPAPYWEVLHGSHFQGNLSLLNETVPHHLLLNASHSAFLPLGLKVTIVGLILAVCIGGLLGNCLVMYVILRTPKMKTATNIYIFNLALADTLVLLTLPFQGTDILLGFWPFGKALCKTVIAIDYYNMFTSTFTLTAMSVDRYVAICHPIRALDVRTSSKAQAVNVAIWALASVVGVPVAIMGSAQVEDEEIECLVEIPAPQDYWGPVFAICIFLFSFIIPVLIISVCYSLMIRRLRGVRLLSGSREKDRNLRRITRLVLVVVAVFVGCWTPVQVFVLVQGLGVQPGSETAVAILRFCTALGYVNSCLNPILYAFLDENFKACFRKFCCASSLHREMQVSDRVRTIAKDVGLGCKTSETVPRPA
Test: cell-based or functional assay

With FGGFTGARKSARKYANQ [Y14-orphanin FQ] the “EC50, cAMP inhibition assay” value was 1 nM.
